In patent US20160010082A1:

Target: Alexa labeled human IgG
Assay: flow cytometry of E. coli displaying the construct, 300 nM Alexa labeled human IgG; two hour induction; reference CPX display

Work on “eCPX displaying the mini-Z-domain at the N-terminus” yielded a fold higher display level than from CPX of 3 fold.
